Data reported in US20250282868A1.

Key:
mouse TREM2 (mouse) [1] = target: mouse TREM2 (mouse) (UniProt Q99NH8); test: MFI on CT26 cells over-expressing mouse TREM2 and DAP12; control in the row of EOS006175
mouse TREM2 (mouse) [2] = target: mouse TREM2 (mouse) (UniProt Q99NH8); test: MFI on CT26 cells over-expressing mouse TREM2 and DAP12; control in the row of EOS006172
mouse TREM2 (mouse) [3] = target: mouse TREM2 (mouse) (UniProt Q99NH8); test: MFI on CT26 cells over-expressing mouse TREM2 and DAP12; control in the row of EOS006180
mouse TREM2 (mouse) [4] = target: mouse TREM2 (mouse) (UniProt Q99NH8); test: MFI on CT26 cells over-expressing mouse TREM2 and DAP12; control in the row of EOS006177
mouse TREM2 (mouse) [5] = target: mouse TREM2 (mouse) (UniProt Q99NH8); test: MFI on CT26 cells over-expressing mouse TREM2 and DAP12; control in the row of EOS006162
mouse TREM2 (mouse) [6] = target: mouse TREM2 (mouse) (UniProt Q99NH8); test: MFI on CT26 cells over-expressing mouse TREM2 and DAP12; control in the row of Ab52
mouse TREM2 (mouse) [7] = target: mouse TREM2 (mouse) (UniProt Q99NH8); test: MFI on CT26 cells over-expressing mouse TREM2 and DAP12; control in the row of EOS006179
mouse TREM2 (mouse) [8] = target: mouse TREM2 (mouse) (UniProt Q99NH8); test: MFI on CT26 cells over-expressing mouse TREM2 and DAP12; control in the row of EOS006170
mouse TREM2 (mouse) [9] = target: mouse TREM2 (mouse) (UniProt Q99NH8); test: MFI on CT26 cells over-expressing mouse TREM2 and DAP12; control in the row of EOS006178
mouse TREM2 (mouse) [10] = target: mouse TREM2 (mouse) (UniProt Q99NH8); test: MFI on CT26 cells over-expressing mouse TREM2 and DAP12; control in the row of EOS006165
mouse TREM2 (mouse) [11] = target: mouse TREM2 (mouse) (UniProt Q99NH8); test: MFI on CT26 cells over-expressing mouse TREM2 and DAP12; control in the row of EOS006167
mouse TREM2 (mouse) [12] = target: mouse TREM2 (mouse) (UniProt Q99NH8); test: MFI on CT26 cells over-expressing mouse TREM2 and DAP12; control in the row of EOS006181
mouse TREM2 (mouse) [13] = target: mouse TREM2 (mouse) (UniProt Q99NH8); test: MFI on CT26 cells over-expressing mouse TREM2 and DAP12; control in the row of EOS006166
mouse TREM2 (mouse) [14] = target: mouse TREM2 (mouse) (UniProt Q99NH8); test: MFI on CT26 cells over-expressing mouse TREM2 and DAP12; control in the row of EOS006174
mouse TREM2 (mouse) [15] = target: mouse TREM2 (mouse) (UniProt Q99NH8); test: MFI on CT26 cells over-expressing mouse TREM2 and DAP12; control in the row of EOS006168
mouse TREM2 (mouse) [16] = target: mouse TREM2 (mouse) (UniProt Q99NH8); test: MFI on CT26 cells over-expressing mouse TREM2 and DAP12; control in the row of EOS006169
mouse TREM2 (mouse) [17] = target: mouse TREM2 (mouse) (UniProt Q99NH8); test: MFI on CT26 cells over-expressing mouse TREM2 and DAP12; control in the row of EOS006163
mouse TREM2 (mouse) [18] = target: mouse TREM2 (mouse) (UniProt Q99NH8); test: MFI on CT26 cells over-expressing mouse TREM2 and DAP12; control in the row of PN-37012
mouse TREM2 (mouse) [19] = target: mouse TREM2 (mouse) (UniProt Q99NH8); test: MFI on CT26 cells over-expressing mouse TREM2 and DAP12; control in the row of EOS006176
mouse TREM2 (mouse) [20] = target: mouse TREM2 (mouse) (UniProt Q99NH8); test: MFI on CT26 cells over-expressing mouse TREM2 and DAP12; control in the row of EOS006173
mouse TREM2 (mouse) [21] = target: mouse TREM2 (mouse) (UniProt Q99NH8); test: MFI on CT26 cells over-expressing mouse TREM2 and DAP12; control in the row of EOS006164

mouse TREM2 (mouse), sequence (Q99NH8 19-227): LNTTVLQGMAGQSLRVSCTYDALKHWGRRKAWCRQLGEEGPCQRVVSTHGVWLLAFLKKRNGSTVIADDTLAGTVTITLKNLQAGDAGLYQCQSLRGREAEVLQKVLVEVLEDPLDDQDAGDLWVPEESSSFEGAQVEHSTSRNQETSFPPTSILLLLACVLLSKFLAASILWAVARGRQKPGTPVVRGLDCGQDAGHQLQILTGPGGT

Isotype control on CT26-TREM2 MFI (mouse TREM2 (mouse) [1]): 679 MFI
Isotype control on CT26-TREM2 MFI (mouse TREM2 (mouse) [2]): 2170 MFI
Isotype control on CT26-TREM2 MFI (mouse TREM2 (mouse) [3]): 2170 MFI
Isotype control on CT26-TREM2 MFI (mouse TREM2 (mouse) [4]): 345 MFI
Isotype control on CT26-TREM2 MFI (mouse TREM2 (mouse) [5]): 2170 MFI
Isotype control on CT26-TREM2 MFI (mouse TREM2 (mouse) [6]): 402 MFI
Isotype control on CT26-TREM2 MFI (mouse TREM2 (mouse) [7]): 679 MFI
Isotype control on CT26-TREM2 MFI (mouse TREM2 (mouse) [8]): 679 MFI
Isotype control on CT26-TREM2 MFI (mouse TREM2 (mouse) [9]): 345 MFI
Isotype control on CT26-TREM2 MFI (mouse TREM2 (mouse) [10]): 2170 MFI
Isotype control on CT26-TREM2 MFI (mouse TREM2 (mouse) [11]): 2170 MFI
Isotype control on CT26-TREM2 MFI (mouse TREM2 (mouse) [12]): 345 MFI
Isotype control on CT26-TREM2 MFI (mouse TREM2 (mouse) [13]): 295 MFI
Isotype control on CT26-TREM2 MFI (mouse TREM2 (mouse) [14]): 345 MFI
Isotype control on CT26-TREM2 MFI (mouse TREM2 (mouse) [15]): 2170 MFI
Isotype control on CT26-TREM2 MFI (mouse TREM2 (mouse) [16]): 679 MFI
Isotype control on CT26-TREM2 MFI (mouse TREM2 (mouse) [17]): 402 MFI
Isotype control on CT26-TREM2 MFI (mouse TREM2 (mouse) [18]): 302 MFI
Isotype control on CT26-TREM2 MFI (mouse TREM2 (mouse) [19]): 345 MFI
Isotype control on CT26-TREM2 MFI (mouse TREM2 (mouse) [20]): 679 MFI
Isotype control on CT26-TREM2 MFI (mouse TREM2 (mouse) [21]): 345 MFI
Substance: Isotype control (antibody)
